From the RNAGym collection of RNA variant scans (doi:10.7554/elife.80360) come the findings set out here.

To fix the notation:
B1: CPEB3 Ribozyme (parent)
chain: GGGGGCCACAGCAGAAGCGUUCACGUCGCGGCCCCUGUCAGAUUCUGGUGAAUCUGCGAAUUCUGCUGU

The variants in the data set derive from B1. Briefly: self-cleavage, relative activity (ratio to wild type); higher = more cleavage; co-transcriptional.
As for GGGGGCCACAGCAGAAGCGUUCACGUCGUGGCCCCUGUCAGAUUCUGGUGAAUCUGCGAAUACUGCUGU, the self-cleavage is 0.15. Under GGGGGCCACAGCAGAAGCGUUCACGUCGUGGACCCUGUCAGAUUCUGGUGAAUCUGCGAAUUCUGCUGU stands 0.295; under GGGGGCCACAGCAGAAGCGUUCACGUCGUGGCCCCUGUCAGCUUCUGGUGAAUCUGCGAAUUCUGCUGU, 0.229. Under GGGGGCCACAGCAGAAGCGUUCACGUCGUGGCCCCUGUCAGGUUCUGGUGAAUCUGCGAAUUCUGCUGU stands 0.246. On to GGGGGCCACAGCAGAAGCGUUCACGUCGCAUCCCCUGUCAGAUUCUGGUGAAUCUGCGAAUUCUGCUGU, for which the self-cleavage amounted to 0.215. Under GGGGGCCACAGCAGAAGCGUUCACGUCGCAACCCCUGUCAGAUUCUGGUGAAUCUGCGAAUUCUGCUGU stands 0.365. Under GGGGGCCACAGCAGAAGCGUUCACGUCGCAGCCCCUGUCAGAUUCUGGUGAGUCUGCGAAUUCUGCUGU stands 0.852; under GGGGGCCACAGCAGAAGCGUUCACGUCGUGGCCCCUGUCAGAUUCUGGUGAAUCUGCGAAUUCUGCUCU, 0.571. Under GGGGGCCACAGCAGAAGCGUUCACGUCGCAGCCCCUGUAAGAUUCUGGUGAAUCUGCGAAUUCUGCUGU stands 0.362; under GGGGGCCACAGCAGAAGCGUUCACGUCGCAGCCCCUGUCAGAUUCUGGUGAAUCUGCAAAUUCUGCUGU, 0.682; under GGGGGCCACAGCAGAAGCGUUCACGUCGCAGCCCCUGUCAGAUUCUGGUGAAUCUGCCAAUUCUGCUGU, 0.858. On to GGGGGCCACAGCAGAAGCGUUCACGUCGCAGCCCCUGUCAGAUUCUGGUGAAUCUGCUAAUUCUGCUGU, for which the self-cleavage worked out at 0.896.

With GGGGGCCACAGCAGAAGCGUUCACGUCGUGGCCCAUGUCAGAUUCUGGUGAAUCUGCGAAUUCUGCUGU, the self-cleavage was 0.186. Take GGGGGCCACAGCAGAAGCGUUCACGUCGUGGCCCGUGUCAGAUUCUGGUGAAUCUGCGAAUUCUGCUGU: the self-cleavage is 0.237. Under GGGGGCCACAGCAGAAGCGUUCACGUCGCAGCCCCUGUCAGAUUCUGGUGAAUCUGCGAAUUGUGCUGU stands 0.483; under GGGGGCCACAGCAGAAGCGUUCACGUCGCAGCCCCUGUCAGAUUCUGGUGAAUCUGCGAAUUUUGCUGU, 0.839; under GGGGGCCACAGCAGAAGCGUUCACGUCGUGGCUCCUGUCAGAUUCUGGUGAAUCUGCGAAUUCUGCUGU, 0.511. Under GGGGGCCACAGCAGAAGCGUUCACGUCGUGGCCCCUGUCAGAUUCUGGUGAAUCUGCGAAUUCUGGUGU stands 0.206.

On to GGGGGCCACAGCAGAAGCGUUCACGUCGCAGCCCCUGUCAGAUUCUAGUGAAUCUGCGAAUUCUGCUGU, for which the self-cleavage was 0.916. Under GGGGGCCACAGCAGAAGCGUUCACGUCGCAGCCCCUGUCAGAUUCUUGUGAAUCUGCGAAUUCUGCUGU stands 0.939; under GGGGGCCACAGCAGAAGCGUUCACGUCGUGGCCCCUGUCAGAUUCUUGUGAAUCUGCGAAUUCUGCUGU, 0.631. Under GGGGGCCACAGCAGAAGCGUUCACGUCGUGGCCCCUGUCAGAUUCUGGUGAAUCUGCGUAUUCUGCUGU stands 0.232. As to GGGGGCCACAGCAGAAGCGUUCACGUCGCAGCGCCUGUCAGAUUCUGGUGAAUCUGCGAAUUCUGCUGU, the self-cleavage is 0.227. Under GGGGGCCACAGCAGAAGCGUUCACGUCGCAGCCCCUGUCAGAUUCUGGUGAAUCUGCGAAUUCUUCUGU stands 0.436; under GGGGGCCACAGCAGAAGCGUUCACGUCGGGGCCCCUGUCAGAUUCUGGUGAAUCUGCGAAUUCUGCUGG, 0.703; under GGGGGCCACAGCAGAAGCGUUCACGUCGUGGCCCCUGUCAGAUUCUGGUGAAUCUGCGACUUCUGCUGU, 0.223.

Consider GGGGGCCACAGCAGAAGCGUUCACGUCGCAGCCCCUGUCAGAUUCUGGUGCAUCUGCGAAUUCUGCUGU, for which the self-cleavage is 0.718. Under GGGGGCCACAGCAGAAGCGUUCACGUCGCAGCCCCUGUCAGCUUCUGGUGAAUCUGCGAAUUCUGCUGU stands 0.623. With GGGGGCCACAGCAGAAGCGUUCACGUCGCAGCCCCUGUCAGUUUCUGGUGAAUCUGCGAAUUCUGCUGU, the self-cleavage turned out to be 0.677.

GGGGGCCACAGCAGAAGCGUUCACGUCGUGGCCCCUGACAGAUUCUGGUGAAUCUGCGAAUUCUGCUGU: the self-cleavage is 0.2.

For the variant GGGGGCCACAGCAGAAGCGUUCACGUCGCAGCCCCUGUCAGAUUCUGGUGAAUCUGCGCAUUCUGCUGU, the self-cleavage was determined as 0.275.

Turning to GGGGGCCACAGCAGAAGCGUUCACGUCGCAGCCCCUGUCAGAUUCUGGUGAAUCUGCGGAUUCUGCUGU, the self-cleavage amounted to 0.708. GGGGGCCACAGCAGAAGCGUUCACGUCGUGGCCCCUGUCAGAUUCGGGUGAAUCUGCGAAUUCUGCUGU: the self-cleavage came to 0.571. Under GGGGGCCACAGCAGAAGCGUUCACGUCGUGGCCCCUGUCAGAUUCCGGUGAAUCUGCGAAUUCUGCUGU stands 0.433; under GGGGGCCACAGCAGAAGCGUUCACGUCGCAGCCCCUGUCAGAUUAUGGUGAAUCUGCGAAUUCUGCUGU, 0.807. With GGGGGCCACAGCAGAAGCGUUCACGUCGCAGCCCCUGUCAGAUUCUGGUGAAUCUGAGAAUUCUGCUGU, the self-cleavage came out at 0.258. Under GGGGGCCACAGCAGAAGCGUUCACGUCGCAGCCCCUGUCAGAUUCUGGUGAAUCUGGGAAUUCUGCUGU stands 0.247; under GGGGGCCACAGCAGAAGCGUUCACGUCGCAGCCCGUGUCAGAUUCUGGUGAAUCUGCGAAUUCUGCUGU, 0.186. Under GGGGGCCACAGCAGAAGCGUUCACGUCGCAGCCCUUGUCAGAUUCUGGUGAAUCUGCGAAUUCUGCUGU stands 0.533.
